Test system: MS2 coat protein
Experiment: apparent KD of MS2 coat protein; designed switch direction (-1 OFF switch, 1 ON switch): -1; higher = weaker reporter binding
In short: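 An oligonucleotide input, 200 uM small-molecule ligand, or no input was present during titration of SNAP-549-labelled MS2 coat protein, which was doubled from 0.7 or 1.5 nM to 3 µM. Designed RNA switches had been transcribed on Illumina chips by stalled E. coli RNA polymerase. Apparent KD per design is the median over clusters of curves fitted to normalised cluster fluorescence.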

[1] = Eterna round: R95, input ligand: FMN 200 uM
[2] = Eterna round: R95, input ligand: microRNA oligo, concentration not stated
[3] = Eterna round: R95, input ligand: none
[4] = input ligand: microRNA oligo, concentration not stated

Row | Sequence | apparent KD of MS2 coat protein [2] | apparent KD of MS2 coat protein (input ligand: FMN 200 uM) | apparent KD of MS2 coat protein (input ligand: none) | also measured
1 | CUUGUCCGAGGAUAUAUUAUGUGAUACAUGAGGAUCACCCAUGUUAUAUGAUGGAUAUAAAUAGAAGGCGGACGAG [Mat - Exclusion 5 - JL mod - D68] (puzzle: Exclusion 5) | 46.7 nM |  |  | apparent KD of MS2 coat protein [1]: 70.2 nM; apparent KD of MS2 coat protein [3]: 47.3 nM
2 | CUUGUUUAUGUGAGGAUAUACUGUUAGUAAUGUUUGUAGAAGGUACAUGAGGAUCACCCAUGUUUAUUUUUUUU [JR_BME4_Sub044] (puzzle: Brourd's mod of Exclusion 4) | 20.2 nM |  |  | 
3 | CUUUAGCUAGGAUAUACAUGAGGAUCACCCAUGUUAGCGGUCCAUUGGGCCGCGGGUUGUAGAAGGAGCAUUAA [Azabeso] (puzzle: Exclusion 3) | 25.3 nM |  |  | 
4 | CUUUAGUGAGGAUAUGUGGCUUCGAUCGUGAGAUCGAGGCUACAGAAGGCACAUGAGGAUCACCCAUGUUCCUC [jl-ex4-4.01 salish99 mod] (Eterna round: R97, puzzle: Exclusion 4) |  | 464 nM | 34.1 nM | 
5 | CUUUAGUGAGGAUAUUAGUAGUAAUACAAUAGUAUUACUACUGAGAAGGCACAUGAGGAUCACCCAUGUUCCUC [Mat - Exclusion 4 - Mod of Omei - D79] (Eterna round: R96, puzzle: Exclusion 4) |  | 303 nM | 28.5 nM | apparent KD of MS2 coat protein [4]: 25 nM
6 | CUUUAGUGAGGAUAUUAGUAGUAAUACAAUAGUAUUACUACUGAGAAGGCACAUGAGGAUCACCCAUGUUCCUC [Mat - Exclusion 4 - Mod of Omei - D79] (puzzle: Exclusion 4) | 28 nM |  |  | 
7 | CUUUCGUGAGGAUAUCAGUAGUAAUAAUAUAAAAUUACUACUGAGAAGGCACAUGAGGAUCACCCAUGUUCCUC [salish99_ex3_r3_101] (puzzle: Exclusion 4) | 23.7 nM |  |  | 
8 | CUUUCGUGAGGAUAUGAAGCUUCGAUCGUGAGAUCGAGGCUACAGAAGGCACAUGAGGAUCACCCAUGUUCCUC [salish99_ex4_r4_217] (Eterna round: R97, puzzle: Exclusion 4) |  | 666 nM | 31.9 nM | 
9 | CUUUCGUGAGGAUAUGUGGCUUCGAUCGUGCGAUCGAGGCUACAGAAGGCACAUGAGGAUCACCCAUGUUCCUC [salish99_ex4_r4_221] (Eterna round: R97, puzzle: Exclusion 4) |  | 427 nM | 45.6 nM | 
10 | CUUUUCAGAGGAUAUAGAUAUUAUCACAUGAGGAUCACCCAUGUAACCCUACAUUCACCACUAGAAGGCUGUUAAG [lam1] (Eterna round: R97, puzzle: Exclusion 5) |  | 27.1 nM | 48.5 nM | 
11 | CUUUUGUGAGGAUAUCAGUAGUAAAAAAAUAAAAUUACUACUGAGAAGGCACAUGAGGAUCACCCAUGUUCCUU [salish99_ex4_r3_010] (puzzle: Exclusion 4) | 15.2 nM |  |  | apparent KD of MS2 coat protein [1]: 28.4 nM; apparent KD of MS2 coat protein [3]: 14 nM
12 | CUUUUGUGAGGAUAUCAGUAGUAAAUAAAUAAAAUUACUACUGAGAAGGCACAUGAGGAUCACCCAUGUUCCUU [salish99_ex3_r3_089] (puzzle: Exclusion 4) | 15.3 nM |  |  | 
13 | CUUUUGUGAGGAUAUCAGUAGUAAAUAAUUAAAAUUACUACUGAGAAGGCACAUGAGGAUCACCCAUGUUCCUC [salish99_ex3_r3_080] (puzzle: Exclusion 4) | 40.3 nM |  |  | 
14 | CUUUUGUGAGGAUAUCAGUAGUAAUACAAUAGUAUUACUACUGAGAAGGCACAUGAGGAUCACCCAUGUUUCUC [Ex4 344 Omei mod 3] (puzzle: Exclusion 4) | 39.8 nM |  |  | 
15 | CUUUUGUGAGGAUAUCAUUAGUAAAUAAAUAAAAUUACUACUGAGAAGGCACAUGAGGAUCACCCAUGUUCCUC [salish99_ex3_r3_072] (puzzle: Exclusion 4) | 31.8 nM |  |  | 
16 | CUUUUGUGAGGAUAUUAGUAGUAAAUGAAUAAAAUUAUUACUGAGAAGGUACAUGAGGAUCACCCAUGUUCCUU [Mat - Exclusion 4 - Eli Mod - D20] (Eterna round: R97, puzzle: Exclusion 4) |  | 16.3 nM | 14.3 nM | 
17 | CUUUUGUGAGGAUAUUAGUUGUAAAUAAAUAAAAUUACUACUGAGAAGGCACAUGAGGAUCACCCAUGUUCCUC [salish99_ex4_r3_049] (puzzle: Exclusion 4) | 33.2 nM |  |  | 
18 | CUUUUGUGAGGAUAUUCGUAGUAAAUGAAUAAAAUUAUUACGGAGAAGGCACAUGAGGAUCACCCAUGUUCCUU [Mat - Exclusion 4 - Eli Mod - D32] (Eterna round: R97, puzzle: Exclusion 4) |  | 53.2 nM | 16.7 nM | 
19 | GAAAACGAAGAGGAUAUAUGAUAUCAAAGCUUCAUAGAAGGCUUCACAUGAGGAUCACCCAUGUGAUCUUCAAA [jl-ex6-4.07 ViennaUCT mod] (Eterna round: R97, puzzle: Exclusion 6) |  | 262 nM | 37.9 nM | 

Row | Sequence | apparent KD of MS2 coat protein [2] | apparent KD of MS2 coat protein (input ligand: FMN 200 uM) | apparent KD of MS2 coat protein (input ligand: none) | also measured
20 | GAAAAGGUAGGAUAUACGAAAAAAGAGGGUAGAAAAAAAACACAUGAGGAUCACCCAUGUAGAAGGACCAAAAG [salish99_ex2_r3_025] (puzzle: Exclusion 2) | 32.1 nM |  |  | apparent KD of MS2 coat protein [1]: 60.2 nM; apparent KD of MS2 coat protein [3]: 24.9 nM
21 | GAAAAGUAAGGAUAUGUCCACAGUGAGGAAACUCACUGUGGACAGAAGGUACAUGAGGAUCACCCAUGUUUCUC [ExDelusion 3 - Jieux - Exclusion 4] (Eterna round: R97, puzzle: Exclusion 4) |  | 213 nM | 39 nM | 
22 | GAACCAAAAGGAUAUGGCGUAACAAACAUGAGGAUCACCCAUGUCCUCGAUGAAUAUCCGCCAGAAGGUUUGUCUC [Eternabot (L2) Solution 10] (Eterna round: R97, puzzle: Exclusion 5) |  | 1000 nM | 1760 nM | 
23 | GAAGGUGAGCAGGAUAUCCGCGCACGAAUAUAAGGAGAAGGGCUUACAUGAGGAUCACCCAUGUAAGGUGGUAG [Rexequar] (puzzle: Exclusion 6) | 11.9 nM |  |  | apparent KD of MS2 coat protein [1]: 15.8 nM; apparent KD of MS2 coat protein [3]: 11.5 nM
24 | GAAUAGAGAGGAUAUGCGAAGUAGGUAGUAAGAUAUAUCUGACAUGAGGAUCACCCAUGUAGAAGGCUCAGAUC [EX2 #4] (Eterna round: R97, puzzle: Exclusion 2) |  | 34.8 nM | 35.2 nM | 
25 | GAAUAGGCAGGAUAUACAUGAGGAUCACCCAUGUGCUUGCGAUAGGCACGUGAACAACGUAGAAGGGCCUUAAC [ChP 13.04.2015 #12] (Eterna round: R96, puzzle: Exclusion 3) |  | 184 nM | 34.9 nM | apparent KD of MS2 coat protein [4]: 30.8 nM
26 | GAAUAGGCAGGAUAUACAUGAGGAUCACCCAUGUGCUUGCGAUAGGCACGUGAACAACGUAGAAGGGCCUUAAC [ChP 13.04.2015 #12] (puzzle: Exclusion 3) | 28.3 nM |  |  | 
27 | GAAUAGGGAGGAUAUCCAAUAUAUGACAUGAGGAUCACCCAUGUUUCCACUCGUACCUCCGGAGAAGGCCCAUAAA [Ex5 #4] (Eterna round: R97, puzzle: Exclusion 5) |  | 22.8 nM | 19.9 nM | 
28 | GACCAGGAAGGAUAUACAUACGGUUCGUGCCUUGGGCUGCGACAUGAGGAUCACCCAUGUAGAAGGUCCAGGUC [EX2 B.18] (Eterna round: R97, puzzle: Exclusion 2) |  | 47.1 nM | 18.6 nM | 
29 | GACCGUGCUUAGGAUAUACGUUAGGAGUUGACCGUAGAAGGGAGUACAUGAGGAUCACCCAUGUCACCUACAGC [Eternabot (L2) Solution 75] (Eterna round: R97, puzzle: Exclusion 6) |  | 15.9 nM | 16.5 nM | 
30 | GACUAGGGAGGAUAUAUUUGCAGUGUACCUCGGGUGAUCGCACUUGAGGAUCACCCAAGUAGAAGGCUCGAGGG [EX2 #26] (Eterna round: R97, puzzle: Exclusion 2) |  | 41.9 nM | 46.5 nM | 
31 | GACUCGCACUGAGGAUAUCGAAACGAUACGUCGCGAGAAGGCAGAGCGAACAUGAGGAUCACCCAUGUGGGUUCGCCUGAUGUA [Geedinsoma] (Eterna round: R96, puzzle: Exclusion NG 1) |  | 23.2 nM | 16.7 nM | apparent KD of MS2 coat protein [4]: 12.9 nM
32 | GACUGCAGAGGAUAUACAUGAGGAUCACCCAUGUGAGAUGCCUGACAGGUGUUGCUGAGUAGAAGGCUGCACUG [Onorveer] (puzzle: Exclusion 3) | 13.2 nM |  |  | 
33 | GACUGGACAGGAUAUGUUCUUGAGCACUUGAGGAUCACCCAAGUCAUCAAGAACUCAGGCACAGAAGGGUUUAUGC [salish99_ex5_r4_011] (Eterna round: R97, puzzle: Exclusion 5) |  | 19.5 nM | 13.7 nM | 
34 | GAGAAACAUGAGGAUCACCCAUGUAAGGAUAUGCUGAAAAUCACGGAUUAAUCGUGCAGCAGAAGGUACAAAGG [Mat - Mod of my Eli Mod D42] (puzzle: Exclusion 1) | 110 nM |  |  | apparent KD of MS2 coat protein [1]: 142 nM; apparent KD of MS2 coat protein [3]: 143 nM
35 | GAGAACUGAGGAUAUACAUGAGGAUCACCCAUGUGAAGAAGAAAGUAGUGAUGGUUGGGUAGAAGGCAGAGAGA [JR_Ex3_Sub065] (Eterna round: R97, puzzle: Exclusion 3) |  | 52.4 nM | 46.3 nM | 
36 | GAGAAUUCAUAGGAUAUCGUAUGGAUAAUUUAACGAGAAGGAUGAACAUGAGGAUCACCCAUGUGGUAUCAUGG [salish99_ex6_r3_002] (puzzle: Exclusion 6) | 87.5 nM |  |  | apparent KD of MS2 coat protein [1]: 83.5 nM; apparent KD of MS2 coat protein [3]: 95 nM
37 | GAGACACAUGAGGAUCACCCAUGUGAGGAUAUCCGAAGGACCAAAUUAAGAAUUAAAGGGAGAAGGCACAUAAA [Exclusion 1 V5] (puzzle: Exclusion 1) | 27.2 nM |  |  | 
